Legend:
[1] = target: T1, Maltose-binding protein (MBP) (Escherichia coli (strain K12), UniProt P0AEX9 = MBP); assay: SPR (BIAcore), MBP immobilized on CM5 chip, 0.1% Tween 20/PBS, 25 C
[2] = target: T1, Maltose-binding protein (MBP); assay: SPR (BIAcore), same manner as in Example 10 (MBP immobilized on CM5 chip)
Experimental: In comparison with the single stranded MBP-bound VHH/MBP-bound ankyrine fused protein obtained in Example 4, and the MBP-bound VHH-Jun/MBP-bound ankyrine Fos hetero dimer obtained in Example 9, the MBP bound antibody domain (VHH), which is a single domain protein bound to MBP and represented by Sequence ID No. 2 and the MBP-bound ankyrine represented by Sequence ID No. 6 were evaluated by SPR (manufactured by BIAcore). As a substrate, CM5 (manufactured by BIAcore) is used. MBP is immobilized onto the substrate in accordance with the method recommended by the manufacturer. The MBP immobilized chip thus obtained is subjected to evaluation under the conditions: running Buffer: 0.1% Tween 20/PBS, flow rate: 20 μL/min, and temperature: 25° C. […] The capturing molecule according to the present invention has a high binding ability, compared to the capturing molecule known in the art binding to a target substance at a single epitope (or single site).
MBP-bound VHH-Jun fusion protein and MBP-bound peptide-Fos fusion protein hetero dimer obtained in Example 14 was evaluated for SPR (manufactured by BIAcore) in the same manner as in Example 10.

| Binder | Kd [1] | Kd [2] |
| --- | --- | --- |
| MBP bound antibody domain (VHH) (VHH) VHH: QVQLQESGPGLLKPSETLFLTCTVSGFSISGGYYWGWFRQPPGKEREWIGSVYHSGSTYYNKSLESRVTISIHTSESQISLKLNSVTAADTAVYSCARYRTAHPLWGQGTMVTVSS | 1000 nM | – |
| MBP-bound VHH-Jun/MBP-bound ankyrine Fos hetero dimer (other) chain 1: PWQVQLQESGPGLLKPSETLFLTCTVSGFSISGGYYWGWFRQPPGKEREWIGSVYHSGSTYYNKSLESRVTISIHTSESQISLKLNSVTAADTAVYSCARYRTAHPLWGQGTMVTVSSEFGGGGSGGGGSGGGGSRIARLEEKVKTLKAQNSELASTANMLREQVAQLKQKVMNYFGC chain 2: PWNAADNTGTTPLHLAAYSGHLEIVEVLLKHGADVDASDVFGYTPLHLAAYWGHLEIVEVLLKNGADVNAMDSDGMTPLHLAAKWGYLEIVEVLLKHGADVNAQDKFGKTAFDISIDNGNEDLAEILQEFGGGGSGGGGSGGGGSLTDTLQAETDQLEDKKSALQC | 1 nM | – |
| MBP-bound VHH-Jun fusion protein and MBP-bound peptide-Fos fusion protein hetero dimer (other) chain 1: PWQVQLQESGPGLLKPSETLFLTCTVSGFSISGGYYWGWFRQPPGKEREWIGSVYHSGSTYYNKSLESRVTISIHTSESQISLKLNSVTAADTAVYSCARYRTAHPLWGQGTMVTVSSEFGGGGSGGGGSGGGGSRIARLEEKVKTLKAQNSELASTANMLREQVAQLKQKVMNYFGC chain 2: TPIHRRRQFNTGEFGGGGSGGGGSGGGGSLTDTLQAETDQLEDKKSALQTEIANLLKEKEKLEFILAAYRLC | – | 10 nM |

— US20090215197A1, “TARGET SUBSTANCE CAPTURING MOLECULE” (CANON KABUSHIKI KAISHA, published 2009)
